The target of the data set is NS3h_2a(JFH1) helicase, wild type (Hepatitis C virus genotype 2a, isolate …, UniProt Q99IB8 1196-1661). In words: fluorescence polarization. For orientation: Fluorescence polarisation rises when a labelled molecule tumbles more slowly, as on binding a larger partner.
Chain of NS3h_2a(JFH1) helicase, wild type (Q99IB8 1196-1661): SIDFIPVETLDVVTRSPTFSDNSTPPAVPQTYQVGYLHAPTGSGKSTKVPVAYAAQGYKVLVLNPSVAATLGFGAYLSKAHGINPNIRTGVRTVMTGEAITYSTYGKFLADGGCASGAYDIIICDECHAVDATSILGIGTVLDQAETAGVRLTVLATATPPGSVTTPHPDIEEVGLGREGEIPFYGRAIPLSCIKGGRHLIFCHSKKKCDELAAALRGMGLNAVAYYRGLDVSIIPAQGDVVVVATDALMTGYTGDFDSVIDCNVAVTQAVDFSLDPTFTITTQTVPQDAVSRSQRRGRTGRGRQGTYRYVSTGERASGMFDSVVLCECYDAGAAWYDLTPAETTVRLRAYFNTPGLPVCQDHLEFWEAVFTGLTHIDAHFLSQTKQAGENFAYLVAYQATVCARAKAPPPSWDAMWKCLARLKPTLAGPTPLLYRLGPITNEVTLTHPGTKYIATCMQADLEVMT

In the case of TTTTTTTTTTTTTTT (ssDNA) [Cy5-dT15], the binding result was “binds”.

The values are drawn from article PMC8532174.
